This is an account of results in patent US20230192867A1 (published 2023).

The target in test [1] is T1, huGARP/hLTGF-β complex (human, UniProt P01137 30-390). The test can be described thus: cell-based or functional assay.
For test [2], the target named is T1, huGARP/hLTGF-β complex. The test can be described thus: flow cytometry on activated primary human Tregs, PE secondary antibody. The protocol:
Anti-huGARP antibodies GARP.2, GARP.3, 1H10, 3H5, 22G8 and a hIgG1 isotype control were incubated at 4° C. for 30 minutes with activated Tregs from a healthy donor in a 96 well plate at a starting concentrations of 40 μg/ml followed by serial dilutions. Activated Tregs were prepared from previously isolated and expanded Tregs stimulated for two days with anti-CD3/CD28 activation beads (ThermoFisher, Waltham, Mass., USA) in the presence of 100 units/mL of recombinant human IL-2. An appropriate PE secondary antibody against the primary anti-GARP antibody was applied and washed off after incubation for 15 minutes at 4° C. Samples were processed on a flow cytometer and PE fluorescence intensities analyzed on FLOWJO® flow cytometry system. EC50 calculations were derived using […] PRISM® data analysis software.
On the technique in general: In flow cytometry, cells or beads pass a laser one at a time.

T1 sequence (chain, as listed by the source, form in doubt, chain 1 of 2): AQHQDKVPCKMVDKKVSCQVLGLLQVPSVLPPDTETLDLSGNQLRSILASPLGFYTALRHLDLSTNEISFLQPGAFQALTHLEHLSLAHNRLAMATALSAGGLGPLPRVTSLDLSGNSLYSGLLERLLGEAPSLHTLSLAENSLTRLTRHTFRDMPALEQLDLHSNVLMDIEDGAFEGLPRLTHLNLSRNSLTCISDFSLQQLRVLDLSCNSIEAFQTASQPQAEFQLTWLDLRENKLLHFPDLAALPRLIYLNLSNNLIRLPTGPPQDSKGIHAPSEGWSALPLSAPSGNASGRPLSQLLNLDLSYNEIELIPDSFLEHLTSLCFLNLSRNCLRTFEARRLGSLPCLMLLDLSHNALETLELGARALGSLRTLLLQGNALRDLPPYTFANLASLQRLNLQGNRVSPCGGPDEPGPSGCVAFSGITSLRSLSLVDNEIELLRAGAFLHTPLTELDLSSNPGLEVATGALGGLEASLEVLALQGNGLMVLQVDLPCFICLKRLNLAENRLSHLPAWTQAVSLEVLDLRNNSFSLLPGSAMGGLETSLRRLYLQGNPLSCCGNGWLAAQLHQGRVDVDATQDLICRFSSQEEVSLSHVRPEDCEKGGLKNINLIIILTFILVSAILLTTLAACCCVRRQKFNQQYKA
T1 sequence (P01137 30-390, form in doubt, chain 2 of 2): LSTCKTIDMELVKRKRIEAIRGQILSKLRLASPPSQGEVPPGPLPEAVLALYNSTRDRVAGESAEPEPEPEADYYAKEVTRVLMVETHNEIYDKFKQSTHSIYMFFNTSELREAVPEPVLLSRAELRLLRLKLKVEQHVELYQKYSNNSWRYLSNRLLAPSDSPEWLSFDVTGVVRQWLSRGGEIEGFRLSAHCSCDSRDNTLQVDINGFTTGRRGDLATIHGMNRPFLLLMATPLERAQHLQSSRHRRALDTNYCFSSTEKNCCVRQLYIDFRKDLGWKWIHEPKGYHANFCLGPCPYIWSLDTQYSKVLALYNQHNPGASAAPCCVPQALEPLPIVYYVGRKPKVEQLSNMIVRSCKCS

B1: anti-huGARP mAb 10H7 (antibody, IgG1, V domains shown)
VH: QVQLVESGGGVVQPGRSLRLSCAASEFTFSSYGMYWVRQAPGKGLEWVSIIWHDGSKKYYVDSVKGRFTISRDNSKNTLYLQMNSLRGEDTAVYYCAREQWESWYLDLWGRGTLVTVSS
VL: not shown
Consider B1, for which, in the test with huGARP/hLTGF-β complex [1], the “TGF-β release (ELISA of soluble TGF-β after six hours, 3A9 cells expressing huGARP/latent TGF-β complex on αvβ8 integrin)” value was 16 fold.

B2: anti-huGARP antibody GARP.2 (antibody, V domains shown)
VH: QVQLVESGGGVVQPGRSLRLSCAASEFTFSSYGMYWVRQAPGKGLEWVSIIWHDGSKKYYVDSVKGRFTISRDNSKNTLYLQMNSLRGEDTAVYYCAREQWESWYLDLWGRGTLVTVSS
VL: not shown
notes: Variant of mAb 10H7 with a human IgG1.1 constant domain in place of the original IgG1; also called 10H7/GARP.2
As for B2, the EC50 with huGARP/hLTGF-β complex [2] came to 610 pM.

As a reminder, the EC50 is the concentration at which the effect is half-maximal. Higher therefore signals a less potent agent.
